B1: I318T-hLADH (enzyme, human, UniProt P09622 36-509, looked up)
chain: ADQPIDADVTVIGSGPGGYVAAIKAAQLGFKTVCIEKNETLGGTCLNVGCIPSKALLNNSHYYHMAHGKDFASRGIEMSEVRLNLDKMMEQKSTAVKALTGGIAHLFKQNKVVHVNGYGKITGKNQVTATKADGGTQVIDTKNILIATGSEVTPFPGITIDEDTIVSSTGALSLKKVPEKMVVIGAGVIGVELGSVWQRLGADVTAVEFLGHVGGVGIDMEISKNFQRILQKQGFKFKLNTKVTGATKKSDGKIDVSIEAASGGKAEVITCDVLLVCIGRRPFTKNLGLEELGIELDPRGRIPVNTRFQTKIPNIYATGDVVAGPMLAHKAEDEGIICVEGMAGGAVHIDYNCVPSVIYTHPEVAWVGKSEEQLKEEGIEYKVGKFPFAANSRAKTNADTDGMVKILGQKSTDRVLGAHILGPGAGEMVNEAALALEYGASCEDIARVCHAHPTLSEAFREANLAASFGKSINF
notes: Dihydrolipoamide dehydrogenase, human, pathogenic variant I318T; Clinically reported disease-causing variant; mutation verified by MS
B2: I358T-hLADH (enzyme, human, UniProt P09622 36-509, looked up)
chain: B1 chain with T318I, I358T
notes: Dihydrolipoamide dehydrogenase, human, pathogenic variant I358T; Clinically reported disease-causing variant; mutation verified by MS
B3: R447G-hLADH (enzyme, human, UniProt P09622 36-509, looked up)
chain: B1 chain with T318I, R447G
notes: Dihydrolipoamide dehydrogenase, human, pathogenic variant R447G; Clinically reported disease-causing variant
B4: G194C-hLADH (enzyme, human, UniProt P09622 36-509, looked up)
chain: B1 chain with G194C, T318I
notes: Dihydrolipoamide dehydrogenase, human, pathogenic variant G194C; Clinically reported disease-causing variant
B5: K37E-hLADH (enzyme, human, UniProt P09622 36-509, looked up)
chain: B1 chain with K37E, T318I
notes: Dihydrolipoamide dehydrogenase, human, pathogenic variant K37E; Clinically reported disease-causing variant
B6: G426E-hLADH (enzyme, human, UniProt P09622 36-509, looked up)
chain: B1 chain with T318I, G426E
notes: Dihydrolipoamide dehydrogenase, human, pathogenic variant G426E; Clinically reported disease-causing variant
B7: I12T-hLADH (enzyme, human, UniProt P09622 36-509, looked up)
chain: B1 chain with I12T, T318I
notes: Dihydrolipoamide dehydrogenase, human, pathogenic variant I12T; Also expressed with an N-terminal Twin-Strep-tag to increase the yield; source: very low-expressing, eluted with contaminating proteins
B8: I445M-hLADH (enzyme, human, UniProt P09622 36-509, looked up)
chain: B1 chain with T318I, I445M
notes: Dihydrolipoamide dehydrogenase, human, pathogenic variant I445M; Clinically reported disease-causing variant

Residue numbers refer to the chain shown, from its start. Names may count otherwise.

The first data set concerns the molecule itself. As to the kind of experiment: crystal structure; sitting drop; 0.2 M MgCl2, PEG 3350, 0.1 M Bis-Tris pH 6.7; space group C 1 2 1; two monomers (the homodimer) in the asymmetric unit.
Take B1: the binding result is “binds”.
Same read-out and setting: in the case of B2 it was “binds”.

The next data set deals with the molecule itself. Briefly: SEC; calibrated size-exclusion chromatography (cSEC); HiPrep 16/60 Sephacryl S-200 HR, 4 °C, 150 mM ammonium acetate, pH 6.80, 0.5 mL/min; 40–780 μg protein loaded; dimer to monomers. In general terms: In gel filtration, larger molecules generally elute earlier.
For the protein B3, the binding result is “binds”.
On the same count and under the same terms, under B4 stands “binds”; under B5, “binds”; under B6, “binds”.
The same measure, in the same setting: under B7 stands “binds”.
Still for that read-out and setting: under B8 stands “binds”.

These data come from article PMC10341545, “Structural and Biochemical Investigation of Selected Pathogenic Mutants of the Human Dihydrolipoamide Dehydrogenase” (International Journal of Molecular Sciences, 2023).
